Consider 1 protein from patent US4748122A, “2,5-diketo-D-gluconic acid reductase” (Shionogi & Co., Ltd., priority 1983, dated 1988).

Substrate in this data set: O=C(O)C(=O)[C@@H](O)[C@H](O)C(=O)CO
Kind of data set: Spectrophotometric enzymatic activity (decrease in absorption at 340 nm), purified enzyme solution of Example 1. The format is biochemical, Corynebacterium sp. No. 20A-77 mutant (FERM-BP 108). Particulars: other: varying concentrations of Ca-25DKG, 0.1M TB pH 7, 30° C.

B1: 25DKG-Rase (Corynebacterium sp. SHS752001) (protein)
chain: PNIPTISLNDGRPFAEPGLGTYNLRGDEGVAAMVAAIDSGYRLLDTAVNYENESEVGRAVRASSVDRDELIVASKIPGRQHGRAEAVDSIRGSLDRLGLDVIDLQLIHWPNPSVGRWLDTWRGMIDAREAGLVRSIGVSNFTEPMLKTLIDETGVTPAVNQVELHPYFPQAALRAFHDEHGIRTESWSPLARRSELLTEQLLQELAVVYGVTPTQVVLRWHVQLGSTPIPKSADPDRQRENADVFGFALTADQVDAISGLERGRLWDGDPDTHEEM
notes: The enzyme is an intracellular enzyme extracted from the cells of the 2KLG producing strain; made in house; host or cells: natural producer Corynebacterium sp; No. 20A-77 mutant FERM-BP 108, enzyme purified from sonicated cells; not recombinant
Turning to B1, the Michaelis constant (Km) (as a rule, the substrate concentration at which the rate is half of its maximum) was 1800 ± 1000 µM.
